Assay results as given in US20020165128A1, “Compositions and methods for proteolytically inactivating infectious agents using lactoferrin and related molecules” (priority 1998, published 2002).
Read-outs that look alike come from different tables or passages of the source.

Experiments:
[1] = tested on: H. influenzae Hap adhesin; format: cell-based, Haemophilus influenzae; settings: DB117 derivatives, 13 μM
[2] = molecular target: T1, H. influenzae Hap adhesin (Haemophilus influenzae, UniProt P45387, S243A); format: cell-based; settings: DB117/HapS243A, 430 nM
T1 construct: expressed in transfected cells; host or cells: H. influenzae strain DB117 carrying pJS106
T1 sequence (P45387 26-1394 S243A): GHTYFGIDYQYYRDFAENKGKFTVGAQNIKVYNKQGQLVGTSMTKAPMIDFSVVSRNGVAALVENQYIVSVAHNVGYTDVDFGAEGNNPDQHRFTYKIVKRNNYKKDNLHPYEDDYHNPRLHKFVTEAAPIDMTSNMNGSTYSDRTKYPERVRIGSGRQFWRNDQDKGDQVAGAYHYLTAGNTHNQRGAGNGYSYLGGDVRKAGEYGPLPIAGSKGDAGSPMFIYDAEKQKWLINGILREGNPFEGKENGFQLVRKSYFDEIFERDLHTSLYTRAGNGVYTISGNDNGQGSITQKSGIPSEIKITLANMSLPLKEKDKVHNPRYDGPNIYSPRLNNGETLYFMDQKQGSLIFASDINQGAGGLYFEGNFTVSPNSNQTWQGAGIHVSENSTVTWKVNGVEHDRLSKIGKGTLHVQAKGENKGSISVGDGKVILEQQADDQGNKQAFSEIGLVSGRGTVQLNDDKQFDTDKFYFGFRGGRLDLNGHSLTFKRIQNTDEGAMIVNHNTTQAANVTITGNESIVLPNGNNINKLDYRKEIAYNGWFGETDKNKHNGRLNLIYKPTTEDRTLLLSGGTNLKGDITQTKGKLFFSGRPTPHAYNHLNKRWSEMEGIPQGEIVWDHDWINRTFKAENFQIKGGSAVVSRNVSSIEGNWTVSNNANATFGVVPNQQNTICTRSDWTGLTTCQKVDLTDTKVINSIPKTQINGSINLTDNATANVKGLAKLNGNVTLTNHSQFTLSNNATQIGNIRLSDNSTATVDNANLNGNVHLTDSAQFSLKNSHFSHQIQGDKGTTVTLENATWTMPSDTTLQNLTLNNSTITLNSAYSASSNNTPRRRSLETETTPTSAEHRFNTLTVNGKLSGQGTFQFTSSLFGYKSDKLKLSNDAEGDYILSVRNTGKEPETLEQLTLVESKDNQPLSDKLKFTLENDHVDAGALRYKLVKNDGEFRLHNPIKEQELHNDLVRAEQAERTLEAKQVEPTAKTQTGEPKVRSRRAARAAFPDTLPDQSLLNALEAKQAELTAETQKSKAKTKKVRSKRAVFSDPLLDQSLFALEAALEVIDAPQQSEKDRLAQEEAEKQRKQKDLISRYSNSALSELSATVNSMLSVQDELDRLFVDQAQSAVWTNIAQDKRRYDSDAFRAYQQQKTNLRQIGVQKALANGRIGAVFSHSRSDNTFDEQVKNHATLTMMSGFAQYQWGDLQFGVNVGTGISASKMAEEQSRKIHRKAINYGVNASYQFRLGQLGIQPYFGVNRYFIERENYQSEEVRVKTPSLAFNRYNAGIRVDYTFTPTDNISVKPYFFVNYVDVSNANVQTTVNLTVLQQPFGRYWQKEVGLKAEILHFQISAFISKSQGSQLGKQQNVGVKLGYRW

[3] = cited from earlier work
[4] = molecular target: H. influenzae IgA1 protease precursor (Haemophilus influenzae, UniProt P44969, S288V)
Chain of H. influenzae IgA1 protease precursor (P44969 26-1694 S288V): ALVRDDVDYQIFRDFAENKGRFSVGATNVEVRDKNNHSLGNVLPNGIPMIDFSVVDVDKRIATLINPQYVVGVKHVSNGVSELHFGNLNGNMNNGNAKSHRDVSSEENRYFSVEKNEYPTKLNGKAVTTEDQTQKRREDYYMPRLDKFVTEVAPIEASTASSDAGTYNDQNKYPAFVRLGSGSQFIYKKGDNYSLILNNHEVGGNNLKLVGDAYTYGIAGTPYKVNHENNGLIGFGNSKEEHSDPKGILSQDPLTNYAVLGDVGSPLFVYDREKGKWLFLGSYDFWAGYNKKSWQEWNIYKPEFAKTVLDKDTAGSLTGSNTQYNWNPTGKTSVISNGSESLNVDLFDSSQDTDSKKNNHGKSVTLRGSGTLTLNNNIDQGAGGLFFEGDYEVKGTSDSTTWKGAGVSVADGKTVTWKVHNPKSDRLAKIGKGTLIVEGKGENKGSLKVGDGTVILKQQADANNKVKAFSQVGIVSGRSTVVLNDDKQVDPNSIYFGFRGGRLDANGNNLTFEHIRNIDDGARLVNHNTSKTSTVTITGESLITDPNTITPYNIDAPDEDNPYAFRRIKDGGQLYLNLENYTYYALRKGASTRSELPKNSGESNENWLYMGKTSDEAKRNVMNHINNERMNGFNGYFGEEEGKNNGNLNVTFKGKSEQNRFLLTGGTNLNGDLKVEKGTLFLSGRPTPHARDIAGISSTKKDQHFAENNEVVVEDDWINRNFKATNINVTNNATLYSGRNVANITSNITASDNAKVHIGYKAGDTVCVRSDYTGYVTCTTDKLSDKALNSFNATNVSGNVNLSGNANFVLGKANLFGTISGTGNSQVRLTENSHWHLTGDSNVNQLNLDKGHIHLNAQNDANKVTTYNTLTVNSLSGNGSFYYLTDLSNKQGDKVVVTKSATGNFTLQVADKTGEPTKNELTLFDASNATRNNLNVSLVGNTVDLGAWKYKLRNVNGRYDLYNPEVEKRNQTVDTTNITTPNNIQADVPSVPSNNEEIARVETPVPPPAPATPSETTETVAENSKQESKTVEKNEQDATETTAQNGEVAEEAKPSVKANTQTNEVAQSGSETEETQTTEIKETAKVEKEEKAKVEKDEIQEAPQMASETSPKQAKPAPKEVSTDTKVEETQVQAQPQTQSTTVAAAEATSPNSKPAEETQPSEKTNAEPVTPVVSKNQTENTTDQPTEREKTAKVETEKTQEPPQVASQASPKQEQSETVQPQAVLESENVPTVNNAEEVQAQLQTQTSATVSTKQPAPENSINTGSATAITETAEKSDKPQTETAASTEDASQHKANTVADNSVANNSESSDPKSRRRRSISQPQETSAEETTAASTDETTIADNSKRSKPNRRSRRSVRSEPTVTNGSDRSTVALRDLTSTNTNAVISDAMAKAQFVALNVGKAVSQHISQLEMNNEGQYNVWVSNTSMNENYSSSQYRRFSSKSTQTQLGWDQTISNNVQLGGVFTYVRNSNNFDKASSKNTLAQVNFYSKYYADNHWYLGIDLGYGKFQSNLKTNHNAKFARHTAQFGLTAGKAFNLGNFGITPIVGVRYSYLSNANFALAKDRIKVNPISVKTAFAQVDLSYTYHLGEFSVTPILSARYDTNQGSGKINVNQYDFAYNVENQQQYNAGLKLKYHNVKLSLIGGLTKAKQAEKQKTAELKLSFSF
Protocol: The Rd strain was grown in brain heart-infusion broth supplemented with hemin (10 μg/ml) and nicotinamide adenine dinucleotide (2 μg/ml) to mid-log phase, and then harvested by centrifugation.
All samples were collected in sterile beakers; within 6 hours of collection they were centrifuged at 10,000×g for 20 min at 4 C to remove lipids and cells. The resulting whey was stored at −70 C and was prepared for use by thawing slowly, without further modifications. 2×10^9 H. influenzae cells were resuspended in 1 ml of the unmodified human milk whey and incubated at 37 C with gentle mixing. Samples were removed at intervals between 2 minutes and 1 hour. Whole cells and supernatants were examined by Western immunoblot using antisera directed against all domains of the preprotein.
Mid-log phase Rd3-13 bacteria were incubated in milk whey, and aliquots were removed at the times shown.
The antiserum used was anti-Rd3-13, which reacts with IgAp, IgAa, and IgAb.

B1: A. awamori recombinant lactoferrin: Aspergillus awamori recombinant human lactoferrin provided by Agennix Corporation (protein, UniProt P02788 20-710, looked up)
Lactotransferrin: GRRRSVQWCAVSQPEATKCFQWQRNMRKVRGPPVSCIKRDSPIQCIQAIAENRADAVTLDGGFIYEAGLAPYKLRPVAAEVYGTERQPRTHYYAVAVVKKGGSFQLNELQGLKSCHTGLRRTAGWNVPIGTLRPFLNWTGPPEPIEAAVARFFSASCVPGADKGQFPNLCRLCAGTGENKCAFSSQEPYFSYSGAFKCLRDGAGDVAFIRESTVFEDLSDEAERDEYELLCPDNTRKPVDKFKDCHLARVPSHAVVARSVNGKEDAIWNLLRQAQEKFGKDKSPKFQLFGSPSGQKDLLFKDSAIGFSRVPPRIDSGLYLGSGYFTAIQNLRKSEEEVAARRARVVWCAVGEQELRKCNQWSGLSEGSVTCSSASTTEDCIALVLKGEADAMSLDGGYVYTAGKCGLVPVLAENYKSQQSSDPDPNCVDRPVEGYLAVAVVRRSDTSLTWNSVKGKKSCHTAVDRTAGWNIPMGLLFNQTGSCKFDEYFSQSCAPGSDPRSNLCALCIGDEQGENKCVPNSNERYYGYTGAFRCLAENAGDVAFVKDVTVLQNTDGNNNEAWAKDLKLADFALLCLDGKRKPVTEARSCHLAMAPNHAVVSRMDKVERLKQVLLHQQAKFGRNGSDCPDKFCLFQSETKNLLFNDNTECLARLHGKTTYEKYLGPQYVAGITNLKKCSTSPLLEACEFLRK
modifications: expressed in Aspergillus awamori
For B1, the Hap degradation products [1] was “generated two products” and the “proteolysis of Hap” value [2] was “partial proteolysis of Hap”.

B2: DMV Lactoferrin: commercially available bovine milk lactoferrin powder, DMV International Nutritionals, Lot 10022340 (protein, UniProt P24627 20-708, looked up)
Lactotransferrin: APRKNVRWCTISQPEWFKCRRWQWRMKKLGAPSITCVRRAFALECIRAIAEKKADAVTLDGGMVFEAGRDPYKLRPVAAEIYGTKESPQTHYYAVAVVKKGSNFQLDQLQGRKSCHTGLGRSAGWIIPMGILRPYLSWTESLEPLQGAVAKFFSASCVPCIDRQAYPNLCQLCKGEGENQCACSSREPYFGYSGAFKCLQDGAGDVAFVKETTVFENLPEKADRDQYELLCLNNSRAPVDAFKECHLAQVPSHAVVARSVDGKEDLIWKLLSKAQEKFGKNKSRSFQLFGSPPGQRDLLFKDSALGFLRIPSKVDSALYLGSRYLTTLKNLRETAEEVKARYTRVVWCAVGPEEQKKCQQWSQQSGQNVTCATASTTDDCIVLVLKGEADALNLDGGYIYTAGKCGLVPVLAENRKSSKHSSLDCVLRPTEGYLAVAVVKKANEGLTWNSLKDKKSCHTAVDRTAGWNIPMGLIVNQTGSCAFDEFFSQSCAPGADPKSRLCALCAGDDQGLDKCVPNSKEKYYGYTGAFRCLAEDVGDVAFVKNDTVWENTNGESTADWAKNLNREDFRLLCLDGTRKPVTEAQSCHLAVAPNHAVVSRSDRAAHVKQVLLHQQALFGKNGKNCPDKFCLFKSETKNLLFNDNTECLAKLGGRPTYEEYLGTEYVTAIANLKKCSTSPLLEACAFLTR
For B2, the shelf life ([3]; original sealed packaging, stored below 20° C., max 75% relative humidity) is listed as “at least three years”, the “Iron binding: spectrophotometric method at 465 nm (on solids)” value ([3]; typical analysis) is listed as 76% and the “pH (2%, 20° C.)” value ([3]; typical analysis) is listed as 5.7. The “removal of IgA protease precursor” value ([4]; Rd3-13, after 15 minutes) was “virtually no precursor was removed” and the “removal of IgA protease precursor” value ([4]; Rd3-13, after two hours) was “only a trace of the precursor was removed”.
